Results taken from the supplement of paper PMC10899765.

Experiments:
Conditions in all cases: 20 nM; 72 h
MCF10A [1] = test: percent viability (nuclei count relative to siNT); higher = more viable cells
Description: (§1)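 After 72 h, cells were fixed and stained with Hoechst and anti-fibrillarin, and nucleoli per nucleus were counted with CellProfiler. Values are plate-adjusted percent effect for the one-nucleolus and 5+ nucleoli phenotypes, normalised to siNT (0%) and to the positive controls siNOL11 or siKIF11 (100%), as the mean of biological triplicates. Percent viability is the nuclei count relative to siNT.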

MCF10A [2] = test: 5+ nucleoli phenotype percent effect (relative to siNT 0% and siKIF11 100%); higher = more cells with five or more nucleoli
Description: as §1

MCF10A [3] = test: one-nucleolus phenotype percent effect (relative to siNT 0% and siNOL11 100%); higher = more cells with one nucleolus (ribosome biogenesis inhibition)
Description: as §1

Sequence | percent viability (MCF10A [1]) [%] | 5+ nucleoli phenotype percent effect (MCF10A [2]) [%] | one-nucleolus phenotype percent effect (MCF10A [3]) [%]
CCUAUUCUUGAUUACUUGUUUC [hsa-miR-26a-2-3p] | 138 | 2.15 | -7.71
UGCUGCCUCUCCUCUUGCCUGCAG [hsa-miR-6882-3p] | 45.6 | 44.3 | -22.8
AGGAUGAGCAAAGAAAGUAGAUU [hsa-miR-1255a] | 128 | 55.6 | -24.4
CUCGAGUUGGAAGAGGCG [hsa-miR-4444] | 109 | -29.6 | 19.6
UCUGGGAGGUUGUAGCAGUGGAA [hsa-miR-3192] | 14.6 | -19.2 | 62.5
ACAUCGCCCCACCUUCCCCAG [hsa-miR-6785-3p] | 102 | 55.5 | -34.4
UUAUAAAGCAAUGAGACUGAUU [hsa-miR-340-5p] | 21.9 | -24.6 | 47.7
GAGCCAGUUGGACAGGAGC [hsa-miR-575] | 129 | 3.98 | -23.7
UCUCUGGAGGGAAGCACUUUCUG [hsa-miR-518c-5p] | 45.4 | -17.1 | 33.3
UAGUUCUUCCCUUUGCCCAAUU [hsa-miR-5584-3p] | 32.6 | -41 | 5.26
CAAGAACCUCAGUUGCUUUUGU [hsa-miR-548b-3p] | 83.5 | 39 | -16.6
CAAAGUGCUCAUAGUGCAGGUAG [hsa-miR-20b-5p] | 58.4 | 9.26 | -12
AGCAGCAUUGUACAGGGCUAUGA [hsa-miR-103a-3p] | 36.3 | -29 | 15.6
UUGAUCUCGGAAGCUAAGC [hsa-miR-7641] | 82.6 | 6.46 | -20.1
AACAUCACAGCAAGUCUGUGCU [hsa-miR-499a-3p] | 49.3 | -38.3 | -7.15
UCUGGUAUGUAGUAGGUAAUAA [hsa-miR-4774-5p] | 62.8 | 80.9 | -25.6
AGUGAAUGAUGGGUUCUGACC [hsa-miR-1257] | 25.9 | -35.8 | 45.3
AAGAGAACUGAAAGUGGAGCCU [hsa-miR-3925-5p] | 49.5 | -8.02 | -13
UUUUGCAUGACCCUGGGAGUAGG [hsa-miR-3680-3p] | 51 | -18.3 | 11.5
CCACCGGGGGAUGAAUGUCAC [hsa-miR-181d-3p] | 40.6 | -15.9 | 24.4
